Experimental data reported in paper PMC6459857.

Tests used:
Cdk2 [1] = molecular target: Cdk2 (UniProt P24941); assay: single-molecule FRET, dyes at C54 and C93; settings: reference: unphosphorylated p27-C54-93; sites Y88
Cdk2 [2] = molecular target: Cdk2 (UniProt P24941); assay: single-molecule fluorescence anisotropy, BODIPY at C93; settings: reference: unphosphorylated p27-C93; sites Y88

p27Kip1 (p27) 1-198 (from UniProt P46527) pY88-p27-C54-93
other: fraction in released minor state (Cdk2 [1]): weaker; reference 17

p27Kip1 (p27) 1-198 (from UniProt P46527) pY88-p27-C93
other: fraction in flexible state (Cdk2 [2]): weaker; reference 33
